Laboratory results as given in US20200405820A1 (GENERAL HOSPITAL, published 2020).

What was measured:
[1] = target: T1, parathyroid hormone receptor 1 (PTHR1) in human osteoblast-derived SaOS-2 cells (human, UniProt Q03431 27-593); test: cell-based or functional assay
T1 sequence (looked up): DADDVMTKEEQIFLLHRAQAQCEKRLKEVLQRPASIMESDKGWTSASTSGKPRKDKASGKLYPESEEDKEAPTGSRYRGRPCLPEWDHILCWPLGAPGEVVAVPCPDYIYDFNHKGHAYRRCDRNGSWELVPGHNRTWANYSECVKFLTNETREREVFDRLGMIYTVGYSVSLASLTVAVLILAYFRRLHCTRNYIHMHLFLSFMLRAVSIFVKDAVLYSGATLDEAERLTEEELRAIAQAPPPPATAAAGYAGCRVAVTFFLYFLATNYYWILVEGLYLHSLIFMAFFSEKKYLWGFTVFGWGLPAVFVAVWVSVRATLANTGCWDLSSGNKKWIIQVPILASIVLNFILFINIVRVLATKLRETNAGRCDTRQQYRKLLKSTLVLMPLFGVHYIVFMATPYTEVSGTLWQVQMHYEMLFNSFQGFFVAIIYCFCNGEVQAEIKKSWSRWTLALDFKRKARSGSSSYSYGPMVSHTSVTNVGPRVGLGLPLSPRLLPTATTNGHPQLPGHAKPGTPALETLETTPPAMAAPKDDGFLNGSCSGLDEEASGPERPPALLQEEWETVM

[2] = target: T1, parathyroid hormone receptor 1 (PTHR1) …; test: cell-based or functional assay; remark: listed apart in the source

B1: Palm-PTH(1-34) (Ref. No. 2027) (peptide)
peptide: SVSEIQLMHNLGKHLNSMERVEWLRKKLQDVHNFEYEXEYE
modifications: (PEG)2 linker (-C(O)-CH2(OCH2CH2)2CH2CH2-NH-) between the C-terminal Phe of PTH(1-34) and the N-terminal Glu of the tag; palmitoyl on the side-chain nitrogen of the Lys of the tag EYEK(palm)EYE; C-terminal amide (-NH2)
Max %, cAMP signaling in SaOS2/glosensor (SGS-72) cells [1]: 85% | pEC50, cAMP signaling potency in SaOS2/glosensor (SGS-72) cells [1]: 9.81 log molar concentration (pEC50) | EC50, stimulation of cAMP formation in SaOS-2 cells [2]: ~0.6 nM
